Series [1] relates to eIF2 heterotrimer with eIF2γ-I318M (His-tagged) (Saccharomyces cerevisiae). As to the kind of experiment: filter binding. The following applies: aminoacylated with Met; Filter binding: 25 mM HEPES-KOH pH 7.6, 2.5 mM Mg(OAc)2, 80 mM KOAc, 2 mM DTT, 0.5 mM GDPNP-Mg2+, 1 nM tRNA, 3.125-200 nM eIF2, 26 C; pull-down: 20 mM Tris-HCl ….
The subject of series [2] is eIF2 heterotrimer (WT eIF2γ, His-tagged) (Saccharomyces cerevisiae). As to the kind of experiment: filter binding. Particulars: aminoacylated with Met; Filter binding: 25 mM HEPES-KOH pH 7.6, 2.5 mM Mg(OAc)2, 80 mM KOAc, 2 mM DTT, 0.5 mM GDPNP-Mg2+, 1 nM tRNA, 3.125-200 nM eIF2, 26 C; pull-down: 20 mM Tris-HCl ….

As to “[35S]Met-tRNAiMet (in vitro transcribed)”, the results for the Kd in series [1] and in series [2] were 98 nM and 18 nM, respectively.

Source of the values: paper PMC6344876.
